Among the data in patent US20160009800A1 are MFI, Kd and Fold Improvement with Insulin values, retold here.

Assay [1] concerns the target human insulin receptor complexed with human insulin (human) (UniProt P06213). Nature of the assay: FACS, serum-starved IM-9 cells pre-exposed to human insulin. Background: Flow cytometry measures light scatter and fluorescence of single cells or particles in a stream.
In assay [2] the target is human insulin receptor (human) (UniProt P06213). Nature of the assay: KinExA antibody depletion by hINSR8-CHOK1 cells, without insulin. In general terms: In KinExA the mixture passes briefly over coated beads that capture the unbound partner.
The target in assay [3] is human insulin receptor complexed with human insulin (human) (UniProt P06213). Kind of assay: KinExA, affinity with insulin against affinity without insulin.
The target is the same in assay [4]. Nature of the assay: KinExA antibody depletion by hINSR8-CHOK1 cells, with 175 nM insulin.
In assay [5] the target is human insulin receptor (human) (UniProt P06213). Nature of the assay: FACS, serum-starved IM-9 cells, no insulin.
Assay [6] has the same target. Kind of assay: FACS, serum-starved IM-9 cells; insulin state of the control not stated.

For the substance 83-7 (antibody), the values for the MFI in assay [1] and in assay [5] were 34.9 and 18.4, respectively. Moreover, the results for the dissociation constant Kd in assay [2] and in assay [4] were 0.48 nM and 0.16 nM, respectively. This substance also had a Fold Improvement with Insulin in assay [3] of 3 fold.

In assay [6], Neg Control gave an MFI of 3.83.
